Laboratory results as given in patent publication US20240158455A1, “MULTIPLE SCLEROSIS ASSOCIATED AUTOANTIGENS, AND USE THEREOF IN THERAPY AND DIAGNOSIS” (NEOGAP Therapeutics AB, priority 2017, published 2024).

B1: FABP7 isoform 2. Full length: recombinant full-length human FABP7 isoform 2 (SEQ ID NO: 1) produced in E. coli; in b59 "FABP7" refers to PrEST data (protein, listed as Homo sapiens)
chain: MVEAFCATWKLTNSQNFDEYMKALGVGFATRQVGNVTKPTVIISQEGDKVVIRTLSTFKNTEISFQLGEEFDETTADDRNCKSVVSLDGDKLVHIQKWDGKETNFVREIKDGKMVMVSNDNSPFFLVFFSSPHTSHLLPSSSLLLPFFLLPSFFNNTSLARFFNYM
B2: PROK2: recombinant full-length PROK2 (SEQ ID NO: 2) produced in E. coli (protein, listed as Homo sapiens)
chain: MRSLCCAPLLLLLLLPPLLLTPRAGDAAVITGACDKDSQCGGGMCCAVSIWVKSIRICTPMGKLGDSCHPLTRKNNFGNGRQERRKRKRSKRKKEVPFFGRRMHHTCPCLPGLACLRTSFNRFICLAQK
B3: RTN3: recombinant full-length RTN3 (SEQ ID NO: 3) produced in E. coli (protein, listed as Homo sapiens)
chain: MAEPSAATQSHSISSSSFGAEPSAPGGGGSPGACPALGTKSCSSSCADSFVSSSSSQPVSLFSTSQEGLSSLCSDEPSSEIMTSSFLSSSEIHNTGLTILHGEKSHVLGSQPILAKEGKDHLDLLDMKKMEKPQGTSNNVSDSSVSLAAGVHCDRPSIPASFPEHPAFLSKKIGQVEEQIDKETKNPNGVSSREAKTALDADDRFTLLTAQKPPTEYSKVEGIYTYSLSPSKVSGDDVIEKDSPESPFEVIIDKAAFDKEFKDSYKESTDDFGSWSVHTDKESSEDISETNDKLFPLRNKEAGRYPMSALLSRQFSHTNAALEEVSRCVNDMHNFTNEILTWDLVPQVKQQTDKSSDCITKTTGLDMSEYNSEIPVVNLKTSTHQKTPVCSIDGSTPITKSTGDWAEASLQQENAITGKPVPDSLNSTKEFSIKGVQGNMQKQDDTLAELPGSPPEKCDSLGSGVATVKVVLPDDHLKDEMDWQSSALGEITEADSSGESDDTVIEDITADTSFENNKIQAEKPVSIPSAVVKTGEREIKEIPSCEREEKTSKNFEELVSDSELHQDQPDILGRSPASEAACSKVPDTNVSLEDVSEVAPEKPITTENPKLPSTVSPNVFNETEFSLNVTTSAYLESLHGKNVKHIDDSSPEDLIAAFTETRDKGIVDSERNAFKAISEKMTDFKTTPPVEVLHENESGGSEIKDIGSKYSEQSKETNGSEPLGVFPTQGTPVASLDLEQEQLTIKALKELGERQVEKSTSAQRDAELPSEEVLKQTFTFAPESWPQRSYDILERNVKNGSDLGISQKPITIRETTRVDAVSSLSKTELVKKHVLARLLTDFSVHDLIFWRDVKKTGFVFGTTLIMLLSLAAFSVISVVSYLILALLSVTISFRIYKSVIQAVQKSEEGHPFKAYLDVDITLSSEAFHNYMNAAMVHINRALKLIIRLFLVEDLVDSLKLAVFMWLMTYVGAVFNGITLLILAELLIFSVPIVYEKYKTQIDHYVGIARDQTKSIVEKIQAKLPGIAKKKAE
B4: SNAP91: recombinant full-length SNAP91 (SEQ ID NO: 4) produced in E. coli (protein, listed as Homo sapiens)
chain: MSGQTLTDRIAAAQYSVTGSAVARAVCKATTHEVMGPKKKHLDYLIQATNETNVNIPQMADTLFERATNSSWVVVFKALVTTHHLMVHGNERFIQYLASRNTLFNLSNFLDKSGSHGYDMSTFIRRYSRYLNEKAFSYRQMAFDFARVKKGADGVMRTMAPEKLLKSMPILQGQIDALLEFDVHPNELTNGVINAAFMLLFKDLIKLFACYNDGVINLLEKFFEMKKGQCKDALEIYKRFLTRMTRVSEFLKVAEQVGIDKGDIPDLTQAPSSLMETLEQHLNTLEGKKPGNNEGSGAPSPLSKSSPATTVTSPNSTPAKTIDTSPPVDLFATASAAVPVSTSKPSSDLLDLQPDFSSGGAAAAAAPAPPPPAGGATAWGDLLGEDSLAALSSVPSEAQISDPFAPEPTPPTTTAEIATASASASTTTTVTAVTAEVDLFGDAFAASPGEAPAASEGAAAPATPTPVAAALDACSGNDPFAPSEGSAEAAPELDLFAMKPPETSVPVVTPTASTAPPVPATAPSPAPAVAAAAAATTAATAAATTTTTTSAATATTAPPALDIFGDLFESTPEVAAAPKPDAAPSIDLFSTDAFSSPPQGASPVPESSLTADLLSVDAFAAPSPATTASPAKVDSSGVIDLFGDAFGSSASEPQPASQAASSSSASADLLAGFGGSFMAPSPSPVTPAQNNLLQPNFEAAFGTTPSTSSSSSFDPSVFDGLGDLLMPTMAPAGQPAPVSMVPPSPAMAASKALGSDLDSSLASLVGNLGISGTTTKKGDLQWNAGEKKLTGGANWQPKVAPATWSAGVPPSAPLQGAVPPTSSVPPVAGAPSVGQPGAGFGMPPAGTGMPMMPQQPVMFAQPMMRPPFGAAAVPGTQLSPSPTPASQSPKKPPAKDPLADLNIKDFL

Target: HLA DRB5 01:01
Assay: competitive HLA binding assay (legend: - No binding)

Molecule | binding result
ACDKDSQCGGGMCCA (also called Pool 1 PROK2) [PROK2 peptide #2 (Aa 33-47 of SEQ ID NO: 2)] | no binding
SQCGGGMCCAVSIWV (also called Pool 1 PROK2) [PROK2 peptide #3 (Aa 38-52 of SEQ ID NO: 2)] | no binding
CTPMGKLGDSCHPLT (also called Pool 1 PROK2) [PROK2 peptide #7 (Aa 58-72 of SEQ ID NO: 2)] | no binding
KLGDSCHPLTRKNNF (also called Pool 2 PROK2) [PROK2 peptide #8 (Aa 63-77 of SEQ ID NO: 2)] | no binding
GNGRQERRKRKRSKR (also called Pool 2 PROK2) [PROK2 peptide #11 (Aa 78-92 of SEQ ID NO: 2)] | no binding
ERRKRKRSKRKKEVP (also called Pool 2 PROK2) [PROK2 peptide #12 (Aa 83-97 of SEQ ID NO: 2)] | no binding
KRSKRKKEVPFFGRR (also called Pool 2 PROK2) [PROK2 peptide #13 (Aa 88-102 of SEQ ID NO: 2)] | no binding
QVGNVTKPTVIISQE (also called Pool 2 FABP7) [FABP7 peptide #7 (Aa 32-46 of SEQ ID NO: 1)] | no binding
GRRMHHTCPCLPGLA (also called Pool 3 PROK2) [PROK2 peptide #18 (Aa 100-114 of SEQ ID NO: 2)] | no binding
HTCPCLPGLACLRTS (also called Pool 3 PROK2) [PROK2 peptide #19 (Aa 105-119 of SEQ ID NO: 2)] | no binding
TKPTVIISQEGDKVV (also called Pool 2 FABP7) [FABP7 peptide #8 (Aa 37-51 of SEQ ID NO: 1)] | no binding
IISQEGDKVVIRTLS (also called Pool 2 FABP7) [FABP7 peptide #9 (Aa 42-56 of SEQ ID NO: 1)] | no binding
IRTLSTFKNTEISFQ (also called Pool 2 FABP7) [FABP7 peptide #11 (Aa 52-66 of SEQ ID NO: 1)] | no binding
TFKNTEISFQLGEEF (also called Pool 2 FABP7) [FABP7 peptide #12 (Aa 57-71 of SEQ ID NO: 1)] | no binding
EISFQLGEEFDETTA (also called Pool 3 FABP7) [FABP7 peptide #13 (Aa 62-76 of SEQ ID NO: 1)] | no binding
LGEEFDETTADDRNC (also called Pool 3 FABP7) [FABP7 peptide #14 (Aa 67-81 of SEQ ID NO: 1)] | no binding

System: T-cells in PBMCs from MS patients and healthy controls
Assay: FluoroSpot with full-length recombinant antigens (52 patients, 24 controls), with ROC analysis
Assay type: cell-based, human
Experimental: FIGS. 8A-8D. IFNγ/IL-22/IL-17 Fluorospot assay comparing T-cell activation in multiple sclerosis (MS)-patients and healthy controls when stimulated with full-length recombinant antigens (FABP7, PROK2, RTN3, SNAP91). Fifty-two Multiple Sclerosis patients and 24 healthy controls were tested for T-cell activation towards recombinant full-length versions of the autoantigens in a FluoroSpot assay. FIG. 8A: FABP7 isoform 2 (SEQ ID NO:1). FIG. 8B: PROK2 (SEQ ID NO:2). FIG. 8C: RTN3 SEQ ID NO:3. FIG. 8D: SNAP91 SEQ ID NO: 4. P-values calculated using Mann-Whitney test. Staples denote mean and C195%.
FIGS. 9A-9E. ROC-curves for the full-length antigens, Sensitivity and specificity when used as a diagnostic marker. Individually, the four antigens perform similarly as diagnostic markers for disease, all reaching a sensitivity of ˜50% with a specificity of 95%. FIG. 9A: FABP7 isoform 2. FIG. 9B: PROK2. FIG. 9C: RTN3. FIG. 9D: SNAP91. FIG. 9E: Using a combination of all four antigens as a diagnostic test achieves higher sensitivity and specificity. Specifically, utilizing the ratio of IL-17 divided by the square root of IFNγ response towards the mean response to the four antigens achieves a sensitivity of 70% with a specificity of >95%.
The full-length proteins can also be used in a similar way, see FIG. 9A-D. Utilizing all four full-length antigens, using each individual's average response to the four, increases the sensitivity and specificity further (FIG. 9E). Combining different readouts, such as analyzing the ratio between IL-17 and IFNγ, can increase the sensitivity of the test further (FIG. 9E, Table 2).
Recombinant full-length versions of the antigens FABP7 (SEQ ID NO: 1), PROK2 (SEQ ID NO: 2), RTN3 (SEQ ID NO: 3), SNAP91 (SEQ ID NO: 4) were produced in E. coli in house according to standard recombinant protein production protocols and purified via his-tag purification. 52 patients and 24 controls were tested for reactivity towards the antigens in an IFNγ/IL17/IL22 FluoroSpot assay as previously described.
A second, larger, cohort was collected in order to test the full length antigens. In this cohort, 52 patients and 24 healthy controls were included. The inclusion/exclusion criteria (table 5) as well as the sampling and PBMCs isolation were the same.
The antigens (FABP7, PROK2, RTN3 and SNAP91) picked out from the screening of PrESTs described in Example 1 and 2 were selected for further testing on the full-length versions of the protein. The full-length antigens were produced by transforming plasmids encoding the antigen and a […] into Escherichia coli. After growth, the bacteria were lysed and the protein purified from the supernatant of the bacterial lysis via 6× histidine-tag purification on an immobilized metal affinity chromatography-column. The antigens were subsequently coupled to beads and endotoxin-washed as previously described.
The FluoroSpot assay was performed under sterile conditions in a cell culture hood. The cells were thawed in a water bath at 37° C. and washed with cRPMI (RPMI 1640 medium, Sigma Aldrich, containing 10% fetal calf serum, 1% 200 mM L-Glutamine, 1% 10,000 U/ml Penicillin-10 mg/ml Streptomycin). The cells were counted manually using a light-microscope (Nikon TMS-F, Nikon, Japan) and subsequently diluted in cRPMI to a concentration of 2.5×10^6 cells/ml. The FluoroSpot plate (Human IFNγ/IL-22/IL-17A FluoroSpot kit, pre-coated, Mabtech, Sweden) was washed with PBS and then blocked with cRPMI for 30 min at room temperature. The blocking cRPMI was then discarded and 100 μl fresh cRPMI was added to each well of the FluoroSpot plate. Antigen (3×10^6 beads) was added to each well in duplicates according to a specific layout. In accordance to the manufacturer's protocol, anti-CD3 was used as a positive control. Both uncoupled beads and media without stimuli was used as negative controls. PBMCs (250,000 cells) in 100 μl cRPMI were added to each well (125,000 cells for the anti-CD3). […]

Molecule | reactivity of MS patients PBMCs versus controls, IFNγ | reactivity of MS patients PBMCs versus controls, IL17 and IL22
B1 | significantly higher reactivity | significantly higher reactivity
B2 | significantly higher reactivity | significantly higher reactivity
B3 | significantly higher reactivity | significantly higher reactivity
B4 | apart from IFNγ for SNAP91 | significantly higher reactivity
